Assay results: the RNAGym collection of RNA variant scans (doi:10.1073/pnas.2313332121)

B1: TPR t1 (parent)
chain: GACCAAUCUGCCCUCAGAGCUCGAGAACAUCUUCGGAUGCAGAGGAGGCAGGCUUCGGUGGCGCGAUAGCGCCAACGUCCUCAACCUCCAAUGCAUCCCACCACAUGAUGAUGCCUGAAGAGCCUUGGUUUUUUG

Variants of: B1
Experiment: polymerase ribozyme fitness, log enrichment relative to wild type (log ratio); higher = more active; in vitro selection for triplet polymerase activity
Method in brief: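 Fitness compares each genotype's enrichment to that of the wild type on a logarithmic scale, averaging replicates with inverse-variance weights. The logarithm is base 2. Enrichment came from Illumina sequencing of input and output libraries after one triplicate round of in vitro selection, which included frozen incubation at −7 °C, of PCR-built, transcribed mutant libraries of each subunit of a heterodimeric triplet polymerase ribozyme. Only genotypes with ≥10 input reads and ≥1 read per output were kept.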

Compared with GACUAAUCUGCCCUCAGAGCUCGAGAACAUCUUCGGAUGCUGAGGAGGCAGGCUUCGGUGGCGCGAUAGCGCCAACGUCCUCAACCUCCAAUGCAUCCCACCACAUGAUGAACCCUGAAGACCCUUGGUUUUUUG [C4U A41U U112A G113C G122C], GACUAAUCUGGCCUCAGAGCUCGAGAACAUCUUCGGAUGCAGAGGAGGCAGGCUUCGGUGGCGCGAUAGCGCCAACGUCCUCAACCUCCAAUGCAUCCCAUCACAUGAUGAUGCCUGAAGAGCCUUGGUUUUUUG [C4U C11G C101U] is higher in “polymerase ribozyme fitness (log ratio)” value: -2.19 for the first, -0.238 for the second.

First: GACUAAUCUGCCCUCAGAGCUCGAGAACAUCUUCGGAUGCAGAGGAGGCGGGCUUCGGUGGUGCGAUAGCGCCAACGUCCUCAACCUCCAAUGCAUCCCACCACAUGAUAAUGCCUGAAGAGCCUUGGUUUUUUG [C4U A50G C62U G110A]
Second: GACUAAUCUGCCCUCAGAGCUCGAGAACAUCUUCGGAUGCAGCGAAGGCAGGCUUCGGUGGCGCGAUAGCGCCUACGUCCUCAACCUCCAAUGCAUCCCACCACAUGAUGAUGCCUGAAGAGCAUUGGUUUUUUG [C4U A43C G45A A74U C124A]
The “polymerase ribozyme fitness (log ratio)” value of the first is higher: -1.24 for the first, -2.29 for the second.

Going from GACUAAUCUGCCCUCAGAGCUCGAGAACAUCUUCGGAUGCAGAGGAGGCAGGCUUCGGUGGCGCGAUAGCGCCUACGUCCUCAACCUCCAAUGCAUCCCACCACAUGAUGAUGCCUGAAGAGCCUUGGUUUUUUG [C4U A74U] to GACUAAUGUGCCCUCAGAGCUCGAGAACAUCUUCGGAUGCAGAGGAGGCAGGUUUCGGUGGCGCGAUAGCGCCAACGUCCUCAACCUCCAAUGCAUCCCACCACAUGAUGAUGCCUGAAGAGCCUUGGUUUUUUG [C4U C8G C53U], the “polymerase ribozyme fitness (log ratio)” value rises from -1.1 to 0.711.

First: GACUAAUCUGCUCUCGGAGCUCGAGAACAUCUUCGGAUGAAGAGGAGGCAGGCUUCUGUGGCGCGAUAGCGCCAACGUCCUCAACCUCCAAUGCAUCCCACCACAUGAUGAUGCCUGAAGAGCCUUGGUUUUUUG [C4U C12U A16G C40A G57U]
Second: GACUAAUCUGCCCUCAGAGCUCGAGAACAUCUUCGGAUGCAGAGGAGGCCGGCUUCGGUGGCGCGAUAGCGCCUACGUGCUCAACCUCCAAUGCAUCCCACCACAUGAUGAUGCCUAAAGAGCCUUGGUUUUUUG [C4U A50C A74U C79G G117A]
The “polymerase ribozyme fitness (log ratio)” value of the first is higher: -2.2 for the first, -4.91 for the second.

First: GACUAAUAUGCCCUCAGAGCUCGAGAACAUCUUCGGAUGCAGAGGAGGCAGGCUUCGGUGGCGCGAUAGCGCCAACGUCCUCAACCUCCAAUGCAUCCCACCACAUGAUGAUGCCUGAAGAGGCUUGGUUUUUUG [C4U C8A C123G]
Second: GACUAAUCUGCCCUCAGAGCUCGAGAACAUCUUCGGAUGCAGUGGAGGCAGGCUUCGGUGGCGCGAUAGUGCCAACGUCCUCAACCUCCAAUGCAUCCCACCACAUGAUGAUGCCUGAAGAGCCUUGGUUUUUUG [C4U A43U C70U]
The “polymerase ribozyme fitness (log ratio)” value of the first is higher: 0.914 for the first, -3.47 for the second.

Going from GACUAAUCUGCCAUCAGAGCUCGAGAACAUCUUCGGAUGCAGAGGAGGCAGGUUUCGGUGGCGCGAUAGCGCCAACGUCCUCAACCUCCAAUGCAUCCCACCACAUGAUGAUGCCUGAAGAGCCUUGGUUUUUUG [C4U C13A C53U] to GACUAAUCUGCACUCAGAGCUCGAGAACAUCUUCGGAUGCAGAGGAGGCAGGCUUCGGUGGCGCGCUAGAGCCAACGUCCUCAACCUCCAAUGCAUCCCACCACAUGAUGAUGCCUGAAGAGCCUUGGUUUUUUG [C4U C12A A66C C70A], the “polymerase ribozyme fitness (log ratio)” value falls from -2.94 to -5.72.

Going from GACUAAUGUGCCAUCAGAGCGCGAGAACAUCUUCGGAUGCAGAGGAGGCAGGCUUCGGUGGCGCGAUAGUGCCAACGUCCUCAACCUCCAAUGCAUCCCACCACAUGAUGAUGCCUGAACAGCCUUGGUUUCUUG [C4U C8G C13A U21G C70U G120C U132C] to GACUAAUCUGCCCUCAGAGCUCGAGAACAUCUUCGGAUGCAGUGGAGGCAGGCUUCGGUGGCCCGAUAGCGCCAACGUCCUCAACCUCCAAUACAUCCCACCACAUGAUGAUGCCUGAAGAGCCUUGGUUUUUUG [C4U A43U G63C G93A], the “polymerase ribozyme fitness (log ratio)” value falls from -0.598 to -3.29.

Going from GACUAAUCUGCACUCAGAGCUCGAGAACAUCUUCGGAUGCAGAGGAGGCAGGAUUUGGUGGCGCGAUAGCGCCAACGUCCUCAACCUCGAAUGCAUCCCACCACAUGAUGAUGCCUGAAGGGCCUUGGUUUUUUG [C4U C12A C53A C56U C89G A121G] to GACUAAUCUGCGCUCAGAGCUCGAGAACAUCUUCGGAUGCAGAGGAGGGAGGCUUCGGUGGCGCGAUAGCGCCAACGUCCUCAACCUCCAAUGCUUCCCACCACAUGAUGGUGCCUGAAGAGCCUUGGUUUUUUG [C4U C12G C49G A95U A111G], the “polymerase ribozyme fitness (log ratio)” value rises from -1.89 to -1.16.

First: GACUAAUCUGCCCUCAGAGCUCGAGAACAUCUUCGGAUGCAGAGGAGGCAGGCUUCGGUGGCGCGAUGGCGCCAACGUCCUCAACCUCCAAUGCAUCCCACCACAUGAUGAUGCCUGAAGAGCCUUGGUUUUUUG [C4U A68G]
Second: GACUAAUCUGACCUCAGAGCUCGAGAACAUCUUCGGAUGCAGACGAGGCAGGCUUCGGUGGCGCGAUAGCGCCAACGUCCUGAACCUCCAAUGCAUCCCACCACAUGAUGAUGCCUGAAGCGCCUUAGUUUUUUG [C4U C11A G44C C82G A121C G127A]
The “polymerase ribozyme fitness (log ratio)” value of the first is lower: -3.11 for the first, -0.143 for the second.

Compared with GACUAAUGUGCCCUCAGAGCUCGAGAACAUCUUCGUAAGCAGAUGAGGCAGGCUUCGGUGGCGCGAUAGCGCAAACGUCCUCAACCUCCAAUGCAUCCCACCACAUGAUGAUGCCUGAAGAGCAUUGGUUUUUUG [C4U C8G G36U U38A G44U C73A C124A], GACUAAUCUGCACUCAGAGCUCGAGAACAUCUUCGGAUGCAGAAGAGGCAGGCUUCGGUGGCGCGAUAGCGCCAACGUCCUCAACCUCCAAUGCAUCCCACCACAUGAUGAUGCCAGAAGAGCCUUGGUUUUUUG [C4U C12A G44A U116A] is lower in “polymerase ribozyme fitness (log ratio)” value: -4.82 for the first, -6.42 for the second.

For GACUAAUCUGCCCUCAGAGCUCGAGAACAUCUUCGGAUGCAGAGGAGGCAGGCUUCGGUGGCGCGAUAGCGCCGACGUCCUCAACCUCGAAUGCAUCCCACCACAUGAUGAGGCCUGAAGAGCCUUGGUUUUUUG [C4U A74G C89G U112G], the “polymerase ribozyme fitness (log ratio)” value was -2.61.
